Test results as given in patent US20140271607A1.
Blank lines part the entries; values can stand above or below the molecule they belong to.

Assays:
[1] = target: FX (blood coagulation factor X); assay: cell-based or functional assay
[2] = target: FX (blood coagulation factor X)
[3] = target: rsTF (recombinant soluble tissue factor) (UniProt P13726); assay: cell-based or functional assay
[4] = target: T1, rsTF (recombinant soluble tissue factor), P13726
T1 chain: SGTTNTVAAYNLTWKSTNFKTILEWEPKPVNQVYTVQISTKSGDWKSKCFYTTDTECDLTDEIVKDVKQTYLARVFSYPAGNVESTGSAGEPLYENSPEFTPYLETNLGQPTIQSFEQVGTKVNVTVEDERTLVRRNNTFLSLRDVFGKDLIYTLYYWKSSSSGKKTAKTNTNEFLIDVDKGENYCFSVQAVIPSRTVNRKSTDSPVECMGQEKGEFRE

Molecule: FacVII-ATKAVC (FacVII derivative with SOD1 residues 1-6, ATKAVC, at the C-terminus) (from UniProt P08709 1-466) (enzyme)
EC50 (ng/mL), chromogenic assay (COASET) [1]: 1.75 ng/mL
EC50 (ng/mL), chromogenic assay (COASET), Run 1 [1]: 1.36 ng/mL
EC50 (ng/mL), chromogenic assay (COASET), Run 2 [1]: 1.16 ng/mL

B1: blood coagulation factor VII (Factor VII, FacVII), native (protein)
chain: AVFVTQEEAHGVLHRRRRANAFLEELRPGSLERECKEEQCSFEEAREIFKDAERTKLFWISYSDGDQCASSPCQNGGSCKDQLQSYICFCLPAFEGRNCETHKDDQLICVNENGGCEQYCSDHTGTKRSCRCHEGYSLLADGVSCTPTVEYPCGKIPILEKRNASKPQGRIVGGKVCPKGECPWQVLLLVNGAQLCGGTLINTIWVVSAAHCFDKIKNWRNLIAVLGEHDLSEHDGDEQSRRVAQVIIPSTYVPGTTNHDIALLRLHQPVVLTDHVVPLCLPERTFSERTLAFVRFSLVSGWGQLLDRGATALELMVLNVPRLMTQDCLQQSRKVGDSPNITEYMFCAGYSDGSKDSCKGDSGGPHATHYRGTWYLTGIVSWGQGCATVGHFGVYTRVSQYIEWLQKLMRSEPRPGVLLRAPFP
Relative activity, %, chromogenic assay (COASET) [2]: 100%
Relative activity, %, chromogenic assay (COASET), Run 1 [2]: 100%
Relative activity, %, chromogenic assay (COASET), Run 2 [2]: 100%
EC50 (ng/mL), chromogenic assay (COASET) [1]: 1.38 ng/mL
EC50 (ng/mL), chromogenic assay (COASET), Run 1 [1]: 1.62 ng/mL
EC50 (ng/mL), chromogenic assay (COASET), Run 2 [1]: 1.67 ng/mL

B4: FacVIIa-ATKAVC (activated FacVII-ATKAVC derivative) (protein)
chain: AVFVTQEEAHGVLHRRRRANAFLEELRPGSLERECKEEQCSFEEAREIFKDAERTKLFWISYSDGDQCASSPCQNGGSCKDQLQSYICFCLPAFEGRNCETHKDDQLICVNENGGCEQYCSDHTGTKRSCRCHEGYSLLADGVSCTPTVEYPCGKIPILEKRNASKPQGRIVGGKVCPKGECPWQVLLLVNGAQLCGGTLINTIWVVSAAHCFDKIKNWRNLIAVLGEHDLSEHDGDEQSRRVAQVIIPSTYVPGTTNHDIALLRLHQPVVLTDHVVPLCLPERTFSERTLAFVRFSLVSGWGQLLDRGATALELMVLNVPRLMTQDCLQQSRKVGDSPNITEYMFCAGYSDGSKDSCKGDSGGPHATHYRGTWYLTGIVSWGQGCATVGHFGVYTRVSQYIEWLQKLMRSEPRPGVLLRAPFPATKAVC
Potency (IU/mL), clotting assay (StaclotVIIa-rTF) [4]: 16700 IU/mL
Specific activity (IU/mg as FacVIIa), clotting assay (StaclotVIIa-rTF) [4]: 46100 IU/mg

More lines, main results first:

EC50 (ng/mL), chromogenic assay (COASET) [1]: 6.06 ng/mL
Molecule: FacVII-ATKAVC-40 kDa PEG conjugate (C-terminal PEGylated) (from UniProt P08709 1-466) (enzyme)

EC50 (ng/mL), chromogenic assay (COASET) [1]: 12.2 ng/mL
B2: FacVII-40 kDa PEG (N-terminal PEGylated FacVII) (protein)
chain: AVFVTQEEAHGVLHRRRRANAFLEELRPGSLERECKEEQCSFEEAREIFKDAERTKLFWISYSDGDQCASSPCQNGGSCKDQLQSYICFCLPAFEGRNCETHKDDQLICVNENGGCEQYCSDHTGTKRSCRCHEGYSLLADGVSCTPTVEYPCGKIPILEKRNASKPQGRIVGGKVCPKGECPWQVLLLVNGAQLCGGTLINTIWVVSAAHCFDKIKNWRNLIAVLGEHDLSEHDGDEQSRRVAQVIIPSTYVPGTTNHDIALLRLHQPVVLTDHVVPLCLPERTFSERTLAFVRFSLVSGWGQLLDRGATALELMVLNVPRLMTQDCLQQSRKVGDSPNITEYMFCAGYSDGSKDSCKGDSGGPHATHYRGTWYLTGIVSWGQGCATVGHFGVYTRVSQYIEWLQKLMRSEPRPGVLLRAPFP
Relative activity, % (compared to FacVII), chromogenic assay (COASET) [2]: 11.3%

Potency (IU/mL), clotting assay (StaclotVIIa-rTF) [3]: 1990 IU/mL
Residual activity, % (compared to FacVIIa-ATKAVC), clotting assay (StaclotVIIa-rTF) [3]: 44.7%
Specific activity (IU/mg as FacVIIa), clotting assay (StaclotVIIa-rTF) [3]: 20600 IU/mg
B3: FacVIIa-ATKAVC-PEG-Fc complex (protein, part only; not given: Fc region and PEG linker, not shown: a dimerising Fc or GST)
chain: MVSQALRLLCLLLGLQGCLAAVFVTQEEAHGVLHRRRRANAFLEELRPGSLERECKEEQCSFEEAREIFKDAERTKLFWISYSDGDQCASSPCQNGGSCKDQLQSYICFCLPAFEGRNCETHKDDQLICVNENGGCEQYCSDHTGTKRSCRCHEGYSLLADGVSCTPTVEYPCGKIPILEKRNASKPQGRIVGGKVCPKGECPWQVLLLVNGAQLCGGTLINTIWVVSAAHCFDKIKNWRNLIAVLGEHDLSEHDGDEQSRRVAQVIIPSTYVPGTTNHDIALLRLHQPVVLTDHVVPLCLPERTFSERTLAFVRFSLVSGWGQLLDRGATALELMVLNVPRLMTQDCLQQSRKVGDSPNITEYMFCAGYSDGSKDSCKGDSGGPHATHYRGTWYLTGIVSWGQGCATVGHFGVYTRVSQYIEWLQKLMRSEPRPGVLLRAPFPATKAVC
modifications: C-terminal cysteine linked to the maleimide end of 10 kDa PEG
